# Results from US20060263802A1 (CRUCELL HOLLAND B V, published 2006).
# B1: human monoclonal antibody CRJB (antibody, V domains shown)
# VH: QITLKETGPTLVKPTQTLTLTCTFSGFSLSTSGVGVGWIRQPPGKALEWVTLIYWDDDKRYSPSLENRVTIRKDTSKNQVALTMTNMDPLDTGTYYCAHRQHISSFPWFDSWGQGTLVTVSS
# VL: SYVLTQPPSVSVAPGKTARINCGGNNIEYRSVHWYQQKSGQAPVAVIYDNSDRPSGIPERFSGSKSGNTATLTISRVEAGDEADYYCQVWDISSDVVFGGGTKLTVLG
# Assays:
# Test in all cases: PEPSCAN ELISA, looped 15-mer, 10 ug/ml
# [1] = target: looped peptide … (rabies virus strain ERA)
# [2] = target: looped peptide … (rabies virus strain ERA); remark: listed apart in the source
# [3] = target: looped peptide … (rabies virus strain ERA); remark: listed apart in the source
# [4] = target: looped peptide … (rabies virus strain ERA); remark: listed apart in the source
# [5] = target: looped peptide … (rabies virus strain ERA); remark: listed apart in the source
# [6] = target: looped peptide … (rabies virus strain ERA); remark: listed apart in the source
# [7] = target: looped peptide … (rabies virus strain ERA); remark: listed apart in the source
# [8] = target: looped peptide … (rabies virus strain ERA); remark: listed apart in the source
# [9] = target: looped peptide … (rabies virus strain ERA); remark: listed apart in the source
# [10] = target: looped peptide … (rabies virus strain ERA); remark: listed apart in the source
# [11] = target: looped peptide … (rabies virus strain ERA); remark: listed apart in the source
# [12] = target: looped peptide … (rabies virus strain ERA); remark: listed apart in the source
# [13] = target: looped peptide … (rabies virus strain ERA); remark: listed apart in the source
# [14] = target: looped peptide … (rabies virus strain ERA); remark: listed apart in the source
# [15] = target: looped peptide … (rabies virus strain ERA); remark: listed apart in the source
# [16] = target: looped peptide … (rabies virus strain ERA); remark: listed apart in the source
# [17] = target: looped peptide … (rabies virus strain ERA); remark: listed apart in the source
# [18] = target: looped peptide … (rabies virus strain ERA); remark: listed apart in the source
# [19] = target: looped peptide … (rabies virus strain ERA); remark: listed apart in the source
# [20] = target: looped peptide … (rabies virus strain ERA); remark: listed apart in the source
# [21] = target: looped peptide … (rabies virus strain ERA); remark: listed apart in the source
# [22] = target: looped peptide … (rabies virus strain ERA); remark: listed apart in the source
# [23] = target: looped peptide … (rabies virus strain ERA); remark: listed apart in the source
# [24] = target: looped peptide … (rabies virus strain ERA); remark: listed apart in the source
# [25] = target: looped peptide … (rabies virus strain ERA); remark: listed apart in the source
# [26] = target: looped peptide … (rabies virus strain ERA); remark: listed apart in the source
# [27] = target: looped peptide … (rabies virus strain ERA); remark: listed apart in the source
# [28] = target: looped peptide … (rabies virus strain ERA); remark: listed apart in the source
# [29] = target: looped peptide … (rabies virus strain ERA); remark: listed apart in the source
# [30] = target: looped peptide … (rabies virus strain ERA); remark: listed apart in the source
# [31] = target: looped peptide … (rabies virus strain ERA); remark: listed apart in the source
# [32] = target: looped peptide … (rabies virus strain ERA); remark: listed apart in the source
# [33] = target: looped peptide … (rabies virus strain ERA); remark: listed apart in the source
# [34] = target: looped peptide … (rabies virus strain ERA); remark: listed apart in the source
# [35] = target: looped peptide … (rabies virus strain ERA); remark: listed apart in the source
# [36] = target: looped peptide … (rabies virus strain ERA); remark: listed apart in the source
# [37] = target: looped peptide … (rabies virus strain ERA); remark: listed apart in the source
# [38] = target: looped peptide … (rabies virus strain ERA); remark: listed apart in the source
# [39] = target: looped peptide … (rabies virus strain ERA); remark: listed apart in the source
# [40] = target: looped peptide … (rabies virus strain ERA); remark: listed apart in the source
# [41] = target: looped peptide … (rabies virus strain ERA); remark: listed apart in the source
# [42] = target: looped peptide … (rabies virus strain ERA); remark: listed apart in the source
# [43] = target: looped peptide … (rabies virus strain ERA); remark: listed apart in the source
# [44] = target: looped peptide … (rabies virus strain ERA); remark: listed apart in the source
# [45] = target: looped peptide … (rabies virus strain ERA); remark: listed apart in the source
# [46] = target: looped peptide … (rabies virus strain ERA); remark: listed apart in the source
# [47] = target: looped peptide … (rabies virus strain ERA); remark: listed apart in the source
# [48] = target: looped peptide … (rabies virus strain ERA); remark: listed apart in the source
# [49] = target: looped peptide … (rabies virus strain ERA); remark: listed apart in the source
# [50] = target: looped peptide … (rabies virus strain ERA); remark: listed apart in the source
# [51] = target: looped peptide … (rabies virus strain ERA); remark: listed apart in the source
# [52] = target: looped peptide … (rabies virus strain ERA); remark: listed apart in the source
# [53] = target: looped peptide … (rabies virus strain ERA); remark: listed apart in the source
# [54] = target: looped peptide … (rabies virus strain ERA); remark: listed apart in the source
# [55] = target: looped peptide … (rabies virus strain ERA); remark: listed apart in the source
# [56] = target: looped peptide … (rabies virus strain ERA); remark: listed apart in the source
# [57] = target: looped peptide … (rabies virus strain ERA); remark: listed apart in the source
# [58] = target: looped peptide … (rabies virus strain ERA); remark: listed apart in the source
# [59] = target: looped peptide … (rabies virus strain ERA); remark: listed apart in the source
# [60] = target: looped peptide … (rabies virus strain ERA); remark: listed apart in the source
# [61] = target: looped peptide … (rabies virus strain ERA); remark: listed apart in the source
# [62] = target: looped peptide … (rabies virus strain ERA); remark: listed apart in the source
# [63] = target: looped peptide … (rabies virus strain ERA); remark: listed apart in the source
# [64] = target: looped peptide … (rabies virus strain ERA); remark: listed apart in the source
# [65] = target: looped peptide … (rabies virus strain ERA); remark: listed apart in the source
# [66] = target: looped peptide … (rabies virus strain ERA); remark: listed apart in the source
# [67] = target: looped peptide … (rabies virus strain ERA); remark: listed apart in the source
# [68] = target: looped peptide … (rabies virus strain ERA); remark: listed apart in the source
binder,measurement,setting,value
B1,OD value,[1],93
same,OD value,[2],62
same,OD value,[3],58
same,OD value,[4],94
same,OD value,[5],72
same,OD value,[6],75
same,OD value,[7],74
same,OD value,[8],73
same,OD value,[9],97
same,OD value,[10],62
same,OD value,[11],23
same,OD value,[12],78
same,OD value,[13],97
same,OD value,[14],87
same,OD value,[15],104
same,OD value,[16],71
same,OD value,[17],71
same,OD value,[18],105
same,OD value,[19],96
same,OD value,[20],77
same,OD value,[21],74
same,OD value,[22],84
same,OD value,[23],68
same,OD value,[24],90
same,OD value,[25],66
same,OD value,[26],82
same,OD value,[27],83
same,OD value,[28],123
same,OD value,[29],106
same,OD value,[30],66
same,OD value,[31],83
same,OD value,[32],90
same,OD value,[33],44
same,OD value,[34],83
same,OD value,[35],74
same,OD value,[36],89
same,OD value,[37],82
same,OD value,[38],82
same,OD value,[39],106
same,OD value,[40],83
same,OD value,[41],79
same,OD value,[42],85
same,OD value,[43],33
same,OD value,[44],127
same,OD value,[45],79
same,OD value,[46],83
same,OD value,[47],56
same,OD value,[48],72
same,OD value,[49],72
same,OD value,[50],76
same,OD value,[51],99
same,OD value,[52],58
same,OD value,[53],88
same,OD value,[54],79
same,OD value,[55],86
same,OD value,[56],66
same,OD value,[57],72
same,OD value,[58],79
same,OD value,[59],106
same,OD value,[60],89
same,OD value,[61],104
same,OD value,[62],93
same,OD value,[63],89
same,OD value,[64],70
same,OD value,[65],79
same,OD value,[66],93
same,OD value,[67],80
same,OD value,[68],85
